In publication PMC4600729:

Assays:
[1] = target: dynamic microtubules growing from surface-immobilized GMPCPP seeds (polymer of alpha/beta-tubulin); assay: TIRF microscopy; GFP-labelled motors (20-30 nM, or 50 pM for single molecules) on microtubules growing from immobilized GMPCPP seeds in 10 or 20 μM unlabelled tubulin, 1 mM ATP
[2] = target: T1, taxol-stabilized microtubules (polymer of alpha/beta-tubulin), immobilized; assay: single-molecule TIRF microscopy; GFP-labelled motor (25 pM) in 1 mM ATP on immobilized taxol-stabilized microtubules; pause lifetimes at plus ends, exponential fit; BRB80 pH 6.8
[3] = target: T1, taxol-stabilized microtubules (polymer …); assay: single-molecule TIRF microscopy; spiking experiment, crowded conditions: pM GFP-labelled motor mixed with 15-25 nM unlabelled motor; binding durations at plus ends of taxol-stabilized microtubules

T1 sequence (P68363 whole entry, chain 1 of 2): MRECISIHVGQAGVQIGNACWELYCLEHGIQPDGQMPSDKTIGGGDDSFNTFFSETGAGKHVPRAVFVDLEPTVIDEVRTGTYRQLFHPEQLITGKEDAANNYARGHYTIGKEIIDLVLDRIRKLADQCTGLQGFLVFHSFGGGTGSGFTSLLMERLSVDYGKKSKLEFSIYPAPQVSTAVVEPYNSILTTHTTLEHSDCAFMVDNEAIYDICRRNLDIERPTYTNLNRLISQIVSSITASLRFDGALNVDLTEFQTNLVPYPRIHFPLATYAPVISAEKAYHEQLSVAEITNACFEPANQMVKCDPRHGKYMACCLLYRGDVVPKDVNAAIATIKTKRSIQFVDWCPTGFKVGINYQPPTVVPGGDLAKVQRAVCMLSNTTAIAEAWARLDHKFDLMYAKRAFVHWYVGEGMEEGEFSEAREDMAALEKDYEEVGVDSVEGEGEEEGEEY
T1 sequence (A8K068 whole entry, chain 2 of 2, further chain): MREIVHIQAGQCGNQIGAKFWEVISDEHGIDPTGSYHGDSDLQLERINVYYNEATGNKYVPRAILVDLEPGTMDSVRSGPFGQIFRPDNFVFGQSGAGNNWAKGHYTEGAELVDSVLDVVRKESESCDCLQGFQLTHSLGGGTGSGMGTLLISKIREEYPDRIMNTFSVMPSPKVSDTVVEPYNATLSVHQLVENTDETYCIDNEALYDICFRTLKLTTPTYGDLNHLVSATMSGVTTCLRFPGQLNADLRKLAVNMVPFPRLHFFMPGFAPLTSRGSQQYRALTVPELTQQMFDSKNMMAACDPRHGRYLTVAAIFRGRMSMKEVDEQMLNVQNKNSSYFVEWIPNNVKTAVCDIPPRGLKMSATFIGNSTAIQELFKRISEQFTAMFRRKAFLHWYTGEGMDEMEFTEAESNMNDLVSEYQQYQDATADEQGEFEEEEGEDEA
Sequence of dynamic microtubules growing from surface-immobilized GMPCPP seeds (polymer of alpha/beta-tubulin) (chain, as listed by the source, chain 1 of 2): as the sequence (P68363 whole entry, chain 1 of 2) above
Sequence of dynamic microtubules growing from surface-immobilized GMPCPP seeds (polymer of alpha/beta-tubulin) (chain, as listed by the source, chain 2 of 2): as the sequence (A8K068 whole entry, chain 2 of 2, further chain) above

mean residence time at dynamic plus ends [1]: 7.04 s | mean pause duration at plus ends [2]: 7.2 s | end duration at plus ends under crowded conditions [3]: 2.61 s
B1: Kin5_14GFP (dimeric kinesin-5 as Kin5_18 but with the neck linker shortened to 14 residues, GFP-tagged) (protein)
chain: MSSQNSFMASKKEDKGKNIQVVVRCRPFNQLERKASSHSVLECDSQRKEVYVRTGEVNDKLGKKTYTFDMVFGPAAKQIEVYRSVVCPILDEVIMGYNCTIFAYGQTGTGKTFTMEGERSSDEEFTWEQDPLAGIIPRTLHQIFEKLSENGTEFSVKVSLLEIYNEELFDLLSPSPDVGERLQMFDDPRNKRGVIIKGLEEISVHNKDEVYHILERGAARRKTASTLMNAYSSRSHSVFSVTIHMKETTVDGEELVKIGKLNLVDLAGSENIGRSGAVDKRAREAGNINQSLLTLGRVITALVERTPHIPYRESKLTRILQDSLGGRTKTSIIATVSPASINLEETVSTLDYANRAKSIMNKPEVNQKLTAEEWKRRYEKEKEKNARLKGKVEKLEIELARWRAGETVKAEEQINMEDLMEASTPNLEVEAAQTAAAEAALAAQRTALANMSASVAVNEQARLATECERLYQQLDDKDEEINQQSQYAEQLKEQVMEQEELIANARREYETLQSEMARIQQENESAKEEVKEVLQALEELAVNYDQKSQEIDNKNKDIDALNEELQQKQSVFNAASTELQQLKDM
modifications: not checked
